Paper PMC8891976

Experiments:
[1] = target: ASC (apoptosis-associated speck-like protein containing a CARD) (UniProt Q9ULZ3); test: real-time NMR
[2] = target: ASCb (alternative splicing isoform of ASC) (UniProt Q9ULZ3); test: real-time NMR

k1aveCARD (average apparent rate constant k1 of the residues of the CARD) [1]	k1avePYD (average apparent rate constant k1 of the residues of the PYD) [1]	k2aveCARD (average apparent rate constant k2 of the residues of the CARD) [1]	k2avePYD (average apparent rate constant k2 of the residues of the PYD) [1]	k1 (apparent oligomerization rate constant, exponential fit) [2]	k1aveCARD (average apparent rate constant k1 of the residues of the CARD) [2]	k1avePYD (average apparent rate constant k1 of the residues of the PYD) [2]	k2 (apparent oligomerization rate constant, exponential fit) [2]	k2aveCARD (average apparent rate constant k2 of the residues of the CARD) [2]	k2avePYD (average apparent rate constant k2 of the residues of the PYD) [2]	reaction order m of oligomer formation (column of 495 μM) [2]	reaction order m of oligomer formation (column of 704 μM) [2]	Substance
0.12 h⁻¹	0.21 h⁻¹	0.02 h⁻¹	0.05 h⁻¹									ASC (apoptosis-associated speck-like protein containing a CARD) (from UniProt Q9ULZ3 1-195) (natural protein)
				0.02 h⁻¹	0.0288 h⁻¹	0.0269 h⁻¹	0.02 h⁻¹	0.0288 h⁻¹	0.0269 h⁻¹	3.6	3.6	ASCb (alternative splicing isoform of ASC) (from UniProt Q9ULZ3-2 1-176) (natural protein)
